These results are taken from patent US20220213157A1 (PEKING UNIVERSITY, published 2022).

Data set [1] addresses human CSQ2 D348C mutant, without the signal peptide (human) (UniProt O14958). Put plainly: cell-based or functional assay.
Data set [2] concerns the molecule itself. Put plainly: crystal structure of rat CSQ2 with 200 mM Ca2+, homodimers in the asymmetric unit. As for the experimental part:
Human CSQ2 crystals were obtained according to a hanging drop vapor diffusion method (24-well hanging drop plate, XtalQuest) at 16° C. using 1.5 μL protein solution (25 mg/ml) and 1.5 μL reservoir solution containing 100 mM Na cacodylate (pH 6.0), 25% (vol/vol) 2-methyl-2,4-pentanedio (MPD) and 40 mM calcium lactate. Small needle-like crystals appeared within two days. After several rounds of stick seeding, the crystals had grown to approximately 50×50×400 μm. The Se-Met CSQ2 crystals were obtained using the same process. Diffraction data of native and Se-Met crystals were collected and were prcessed using CCP4 program suit (see, e.g., Winn, M. D. et al. Overview of the CCP4 suite and current developments. Acta. Crystallogr. D. Biol. Crystallogr. 67, 235-242 (2011). doi: 10.1107/S0907444910045749). The initial phase was determined by MR-SAD using PHENIX (see, e.g., P. D. Adams et al., PHENIX: a comprehensive Python-based system for macromolecular structure solution. Acta. Crystallogr. D. Biol. Crystallogr. 66, 213-221 (2010). doi: 10.1107/S0907444909052925). […] The phase was determined by molecular replacement using human CSQ2 structure as a searching model. […]
The crystal structures of the human CSQ2 protein and the rat CSQ2 protein were determined to be 2.2 Å and 2.8 Å with a high concentration of Ca²⁺ in the reservoir solution (40 mM Ca²⁺ for human CSQ2, 200 mM Ca²⁺ for rat CSQ2). […]

Consider “human CSQ2 D348C mutant, without the signal peptide (from UniProt O14958 20-399)”, for which, in data set [1], the current of the CSQ2-immobilized single-molecule junction at 25 mV bias (1 mM Ca2+, 1.2 mM Mg2+) stood at 15 pA.

B1: rat CSQ2 (calsequestrin 2), amino acids 20-413, without the signal peptide (other)
chain: EEGLNFPTYDGKDRVVSLSEKNLKQVLKRYDLLCLYYHEPVSSDKVAQKQFQLKEIVLELVAQVLEHKNIGFVMVDSRKEAKLAKRLGFSEEGSLYVLKGGRTIEFDGEFAADVLVEFLLDLIEDPVEIVNNKLEVQAFERIEDQIKLLGFFKNEDSEYYKAFQEAAEHFQPYIKFFATFDKGVAKKLSLKMNEVGFYEPFMDEPSVIPNKPYTEEELVEFVKEHQRPTLRPLRPEDMFETWEDDLNGIHIVAFAEKSDPDGYEFLEILKQVARDNTDNPDLSILWIDPDDFPLLVAYWEKTFKIDLFKPQIGVVNVTDADSVWMEIPDDDDLPTAEELEDWIEDVLSGKINTEDDDNEDEDDDGDNDNDDDDDDDDNDDEDNDDDDDDDDDDE
notes: Entered as the monomer
For B1, the binding result in data set [2] was “binds”.
